Source: article PMC2289705

Molecular target: vimentin 2.tag (epitope-tagged Xenopus laevis vimentin 2, 57 kD) (X. laevis)
Test: fractionation of oocytes into soluble and insoluble fractions

vimentin 2.tag (epitope-tagged Xenopus laevis vimentin 2, 57 kD) (natural protein)
stoichiometry N: 4
